Biological target: enzymatically [3H] acetylated histone H3 peptide (amino acids 1-24), P68431

B1: human SIRT1 with a C-terminal FLAG tag (protein)
chain: MADEAALALQPGGSPSAAGADREAASSPAGEPLRKRPRRDGPGLERSPGEPGGAAPEREVPAAARGCPGAAAAALWREAEAEAAAAGGEQEAQATAAAGEGDNGPGLQGPSREPPLADNLYDEDDDDEGEEEEEAAAAAIGYRDNLLFGDEIITNGFHSCESDEEDRASHASSSDWTPRPRIGPYTFVQQHLMIGTDPRTILKDLLPETIPPPELDDMTLWQIVINILSEPPKRKKRKDINTIEDAVKLLQECKKIIVLTGAGVSVSCGIPDFRSRDGIYARLAVDFPDLPDPQAMFDIEYFRKDPRPFFKFAKEIYPGQFQPSLCHKFIALSDKEGKLLRNYTQNIDTLEQVAGIQRIIQCHGSFATASCLICKYKVDCEAVRGDIFNQVVPRCPRCPADEPLAIMKPEIVFFGENLPEQFHRAMKYDKDEVDLLIVIGSSLKVRPVALIPSSIPHEVPQILINREPLPHLHFDVELLGDCDVIINELCHRLGGEYAKLCCNPVKLSEITEKPPRTQKELAYLSELPPTPLHVSEDSSSPERTSPPDSSVIVTLLDQAAKSNDDLDVSESKGCMEEKPQEVQTSRNVESIAEQMENPDLKNVGSSTGEKNERTSVAGTVRKCWPNRVAKEQISRRLDGNQYLFLPPNRYIFHGAEVYSDSEDDVLSSSSCGSNSDSGTCQSPSLEEPMEDESEIEEFYNGLEDEPDVPERAGGAGFGTDGDDQEAINEAISVKQEVTDMNYPSNKS
- standard histone deacetylase assay (radioactive, H3 peptide substrate): These enzymes also deacetylate histones as determined in a standard histone deacetylase assay

— patent US20100160262
